One block for each binder: values may come before it.
Legend:
4H2646-AA = biological target: T1, 4H2646-AA; experiment: two-hybrid library CCmax;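 note: natural log of median RNA to DNA barcode read ratio; higher means stronger binding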
T1 chain: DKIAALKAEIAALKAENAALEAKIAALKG

4H2687-AA = biological target: T2, 4H2687-AA; experiment: two-hybrid library CCmax; settings: mean of both orientations;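 note: natural log of median RNA to DNA barcode read ratio; higher means stronger binding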
T2 chain: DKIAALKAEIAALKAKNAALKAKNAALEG

4H2705-AA = biological target: T3, 4H2705-AA; experiment: two-hybrid library CCmax; settings: mean of both orientations;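 note: natural log of median RNA to DNA barcode read ratio; higher means stronger binding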
T3 chain: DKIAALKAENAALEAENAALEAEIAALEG

4H2758-AA = biological target: T4, 4H2758-AA; experiment: two-hybrid library CCmax; settings: mean of both orientations;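 note: natural log of median RNA to DNA barcode read ratio; higher means stronger binding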
T4 chain: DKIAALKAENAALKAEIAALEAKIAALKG

4H278-AA = biological target: T5, 4H278-AA; experiment: two-hybrid library CCmax; settings: mean of both orientations;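 note: natural log of median RNA to DNA barcode read ratio; higher means stronger binding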
T5 chain: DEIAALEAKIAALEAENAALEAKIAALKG

4H2873-AA = biological target: T6, 4H2873-AA; experiment: two-hybrid library CCmax; settings: mean of both orientations;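 note: natural log of median RNA to DNA barcode read ratio; higher means stronger binding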
T6 chain: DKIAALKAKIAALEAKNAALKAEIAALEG

4H2985-AA = biological target: T7, 4H2985-AA; experiment: two-hybrid library CCmax; settings: mean of both orientations
T7 chain: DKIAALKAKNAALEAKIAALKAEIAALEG

4H3134-AA = biological target: T8, 4H3134-AA; experiment: two-hybrid library CCmax; settings: mean of both orientations
T8 chain: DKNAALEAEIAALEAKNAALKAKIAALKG

4H3409-AA = biological target: T9, 4H3409-AA; experiment: two-hybrid library CCmax; settings: mean of both orientations
T9 chain: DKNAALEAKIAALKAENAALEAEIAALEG

4H3625-AA = biological target: T10, 4H3625-AA; experiment: two-hybrid library CCmax; settings: mean of both orientations
T10 chain: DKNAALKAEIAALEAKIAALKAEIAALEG

4H390-AA = biological target: T11, 4H390-AA; experiment: two-hybrid library CCmax; settings: mean of both orientations
T11 chain: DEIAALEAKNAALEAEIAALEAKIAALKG

4H3940-AA = biological target: T12, 4H3940-AA; experiment: two-hybrid library CCmax; settings: mean of both orientations
T12 chain: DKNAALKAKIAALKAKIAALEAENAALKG

4H510-AA = biological target: T13, 4H510-AA; experiment: two-hybrid library CCmax; settings: mean of both orientations
T13 chain: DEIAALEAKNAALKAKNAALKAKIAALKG

4H775-AA = biological target: T14, 4H775-AA; experiment: two-hybrid library CCmax; settings: mean of both orientations
T14 chain: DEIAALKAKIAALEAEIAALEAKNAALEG

4H816-AA = biological target: T15, 4H816-AA; experiment: two-hybrid library CCmax; settings: mean of both orientations
T15 chain: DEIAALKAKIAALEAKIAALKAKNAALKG

4H87-AA = biological target: T16, 4H87-AA; experiment: two-hybrid library CCmax
T16 chain: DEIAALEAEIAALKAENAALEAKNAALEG

P5A-bA = biological target: T17, P5A-bA; experiment: two-hybrid library CCNG1
T17 chain: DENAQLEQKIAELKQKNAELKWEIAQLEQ

P6A-bA = biological target: T18, P6A-bA; experiment: two-hybrid library CCNG1
T18 chain: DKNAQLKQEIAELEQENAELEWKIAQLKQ

P7A-bA = biological target: T19, P7A-bA; experiment: two-hybrid library CCNG1
T19 chain: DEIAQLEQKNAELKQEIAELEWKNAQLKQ

P8A-bA = biological target: T20, P8A-bA; experiment: two-hybrid library CCNG1
T20 chain: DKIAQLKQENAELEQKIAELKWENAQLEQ

P9A-bA = biological target: T21, P9A-bA; experiment: two-hybrid library CCNG1
T21 chain: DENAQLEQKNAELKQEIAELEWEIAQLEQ

P5bH1 = biological target: T22, P5bH1; experiment: two-hybrid library CCNG1
T22 chain: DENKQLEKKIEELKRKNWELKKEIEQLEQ

P6bH1 = biological target: T23, P6bH1; experiment: two-hybrid library CCNG1
T23 chain: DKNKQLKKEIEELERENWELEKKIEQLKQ

P7bH1 = biological target: T24, P7bH1; experiment: two-hybrid library CCNG1
T24 chain: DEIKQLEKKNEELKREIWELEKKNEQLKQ

P8bH1 = biological target: T25, P8bH1; experiment: two-hybrid library CCNG1
T25 chain: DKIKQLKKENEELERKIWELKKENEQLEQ

P9bH1 = biological target: T26, P9bH1; experiment: two-hybrid library CCNG1
T26 chain: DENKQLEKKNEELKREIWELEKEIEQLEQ

P4bH1 = biological target: T27, P4bH1; experiment: two-hybrid library CCNG1
T27 chain: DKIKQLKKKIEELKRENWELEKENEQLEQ

interaction score (4H2646-AA): 1.66
interaction score (4H2687-AA): 1.36
interaction score (4H2705-AA): -1.19
interaction score (4H2758-AA): -0.75
interaction score (4H278-AA): 0.745
interaction score (4H2873-AA): 1.89
interaction score (4H2985-AA): -0.411
interaction score (4H3134-AA): 1.28
interaction score (4H3409-AA): -0.0843
interaction score (4H3625-AA): -0.363
interaction score (4H390-AA): 1.18
interaction score (4H3940-AA): -1.27
interaction score (4H510-AA): 2.02
interaction score (4H775-AA): -0.478
interaction score (4H816-AA): -1.37
interaction score (4H87-AA): 2.43
Binder: DKIAALKAEIAALKAENAALEAKIAALKG [4H2646-AA]

interaction score (P5A-bA): -1.22
interaction score (P6A-bA): 2.33
interaction score (P7A-bA): -1.32
interaction score (P8A-bA): 0.0376
interaction score (P9A-bA): -0.7
Binder: DENAQLEQKIAELKQKNAELKWEIAQLEQ [P5A-bA]

interaction score (P5bH1): -0.609
interaction score (P6bH1): 1.31
interaction score (P7bH1): -2.02
interaction score (P8bH1): 0.944
interaction score (P9bH1): -0.9
Binder: DENKQLEKKIEELKRKNWELKKEIEQLEQ [P5bH1]

interaction score (P4bH1): -1.18
interaction score (P5bH1): -1.09
interaction score (P6bH1): -0.487
interaction score (P7bH1): -0.994
interaction score (P8bH1): -0.993
interaction score (P9bH1): -0.46
Binder: DKIKQLKKKIEELKRENWELEKENEQLEQ [P4bH1]

From article PMC10397247
